# Several values for one entry are separate records, joined by “and”; a condition that tells them apart may be missing. Identical values can stand only once. No end group written: not given here.
# B1: A2 single-chain Fv (scFv) (scFv)
# scFv: QVQLQQSGPDLVKPGASVKISCKASGYSFTGYYMHWVKQSHGKSLEWIGRANPNNGGTSYNQKFKGKAILTVDKSSSTAYMELRSLTSEDSAVYYCARWDGAYWGQGTLVTVSSGGGGSGGGGSGGGGSDVVMTQTPLSLPVSLGDQASISCRSSQSIVHSNGNTYLEWYLQKPGQSPKLLIYKVSNRFSGVPDRFSGSGSGTDFTLKISRVEAEDLGVYYCFQGSHVPFTFGSGTKLELKEQKLISEEDLNHHHHHH
# notes: Soluble monomeric scFv of about 30 kDa, expressed in E. coli BL21 and purified from the periplasm; In the radioimmunoassay the tracer was labeled with 125I by the Bolton-Hunter reagent; also called A2 scFv; A2 scFv antibody
# Experiments:
# [1] = target: T1, biotinylated target Pgp-derived peptide having the amino acid sequence of SEQ ID NO:1 (GEMTDIFANAGNL) (human, also: biotinylated, position not given here); test: saturation ELISA on plate-bound biotinylated peptide; the filing calls the value the affinity constant
# T1 construct: also called target peptide
# T1 peptide: GEMTDIFANAGNL
# streptavidin = streptavidin (UniProt P22629 37-163); test: ELISA, FIG. 1b
# [2] = target: T2, human P-glycoprotein (Pgp), 170 kDa, encoded by the mdr1 gene, on the surface of MDR human carcinoma cells … (human, UniProt P08183 1-1280); test: cell-based or functional assay
# [3] = target: T2, human P-glycoprotein (Pgp), 170 kDa, …; test: flow cytometry on MDR, Pgp-overexpressing 2780^ADR cells, A2 scFv 50 µg/ml
# [4] = target: T1, biotinylated target Pgp-derived peptide …; test: competition radioimmunoassay, cold A2 scFv against [125I]-labeled A2 scFv on plate-bound peptide; the filing calls the value the affinity constant
# T2 sequence (P08183 whole entry): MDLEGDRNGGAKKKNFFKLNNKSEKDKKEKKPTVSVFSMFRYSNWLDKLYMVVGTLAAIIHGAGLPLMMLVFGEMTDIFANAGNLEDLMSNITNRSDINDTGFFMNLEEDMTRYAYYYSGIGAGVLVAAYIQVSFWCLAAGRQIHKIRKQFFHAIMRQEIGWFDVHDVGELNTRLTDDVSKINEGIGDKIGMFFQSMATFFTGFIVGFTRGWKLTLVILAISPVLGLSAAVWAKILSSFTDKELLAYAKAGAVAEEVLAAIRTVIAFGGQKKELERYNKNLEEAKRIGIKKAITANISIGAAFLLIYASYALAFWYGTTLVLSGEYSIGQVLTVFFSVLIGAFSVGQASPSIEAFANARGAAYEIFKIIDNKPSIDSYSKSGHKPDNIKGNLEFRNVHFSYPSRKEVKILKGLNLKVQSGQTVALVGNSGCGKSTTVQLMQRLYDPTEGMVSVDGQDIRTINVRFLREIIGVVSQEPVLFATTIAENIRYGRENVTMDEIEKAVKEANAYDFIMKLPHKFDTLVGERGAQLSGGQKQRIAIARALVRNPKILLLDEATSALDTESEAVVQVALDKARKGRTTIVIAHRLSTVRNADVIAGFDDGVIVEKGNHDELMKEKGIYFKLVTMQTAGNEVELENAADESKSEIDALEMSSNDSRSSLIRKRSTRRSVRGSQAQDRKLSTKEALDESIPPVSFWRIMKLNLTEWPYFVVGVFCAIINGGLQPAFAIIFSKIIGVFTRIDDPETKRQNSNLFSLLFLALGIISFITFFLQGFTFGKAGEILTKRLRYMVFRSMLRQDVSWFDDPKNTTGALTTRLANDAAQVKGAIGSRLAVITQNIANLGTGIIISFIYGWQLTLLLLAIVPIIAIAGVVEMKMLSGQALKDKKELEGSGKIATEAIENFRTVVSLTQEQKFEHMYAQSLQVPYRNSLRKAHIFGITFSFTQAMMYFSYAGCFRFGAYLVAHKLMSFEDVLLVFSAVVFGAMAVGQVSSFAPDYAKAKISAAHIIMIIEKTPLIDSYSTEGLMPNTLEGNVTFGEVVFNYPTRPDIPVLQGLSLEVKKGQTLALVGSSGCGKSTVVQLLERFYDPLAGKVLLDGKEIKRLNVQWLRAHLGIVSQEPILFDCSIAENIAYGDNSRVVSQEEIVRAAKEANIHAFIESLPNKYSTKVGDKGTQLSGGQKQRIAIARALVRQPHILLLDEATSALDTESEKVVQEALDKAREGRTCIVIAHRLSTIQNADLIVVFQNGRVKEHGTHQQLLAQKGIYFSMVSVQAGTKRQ
# Sequence of streptavidin (P22629 37-163 limits assumed): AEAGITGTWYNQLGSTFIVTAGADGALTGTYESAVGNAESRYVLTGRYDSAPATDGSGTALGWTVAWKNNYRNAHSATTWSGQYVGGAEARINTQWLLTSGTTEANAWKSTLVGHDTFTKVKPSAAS
binder,measurement,setting,value
B1,EC50,[1],~150 nM
same,binding result,streptavidin,no binding
same,"concentration of A2 scFv that inhibits 50% drug-efflux activity (IC50), calcein accumulation in 2780^ADR cells",[2],~65 µg/ml and ~2.6 µM
same,fold increase in fluorescent intensity,[3],10 fold
same,IC50,[4],~130 nM

# From patent US20040197334A1 (TECHNION RESEARCH AND DEVELOPMENT FOUNDATION, published 2004)
